This assay deals with T1, Hs CAF1, purified for crystallization (human, UniProt Q9UIV1-1 1-285).
T1 construct: human CAF1 (CNOT7); model holds residues Q10-S266 and G274-E280 (chain B); residues up to E280 are seen in the map, so it is probably the whole protein; also called CNOT7; source: E. coli Rosetta2, purified (GSTrap, PreScission cleavage, gel filtration)
Description: crystal structure; complex of purified NOT1 MIF4G and CAF1 (1.2:1) isolated by gel filtration; hanging drop, 4°C, 0.1 M Tris-HCl pH 8.2, 16% PEG 8000, 0.2 M MgCl2, 0.2 M ammonium sulfate; 2.70 Å. Particulars: both partners purified.

T1 sequence (Q9UIV1 whole entry, the tested form may be a part): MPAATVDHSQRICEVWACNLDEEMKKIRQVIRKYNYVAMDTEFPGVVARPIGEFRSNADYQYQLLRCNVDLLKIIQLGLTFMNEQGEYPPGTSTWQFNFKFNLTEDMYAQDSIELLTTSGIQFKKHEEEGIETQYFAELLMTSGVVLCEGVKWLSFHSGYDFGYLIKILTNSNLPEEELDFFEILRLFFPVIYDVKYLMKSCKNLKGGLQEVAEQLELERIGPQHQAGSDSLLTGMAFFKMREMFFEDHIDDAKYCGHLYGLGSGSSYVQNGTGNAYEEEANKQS

B1: MIF4G domain of Hs NOT1 (residues 1093-1317), purified for crystallization (domain or fragment, human, UniProt A5YKK6-1 1093-1317, looked up)
chain: ENIQEKIAFIFNNLSQSNMTQKVEELKETVKEEFMPWVSQYLVMKRVSIEPNFHSLYSNFLDTLKNPEFNKMVLNETYRNIKVLLTSDKAAANFSDRSLLKNLGHWLGMITLAKNKPILHTDLDVKSLLLEAYVKGQQELLYVVPFVAKVLESSIRSVVFRPPNPWTMAIMNVLAELHQEHDLKLNLKFEIEVLCKNLALDINELKPGNLLKDKDRLKNLDEQLS
notes: His6 fusion is PreScission-cleavable; also called NOT1 MIF4G domain; source: E. coli BL21 Codon Plus RIL, purified (Ni Sepharose IMAC, gel filtration)
Consider B1, for which the binding result is “binds”.

For the origin of these results see PMC3510486, “The structural basis for the interaction between the CAF1 nuclease and the NOT1 scaffold of the human CCR4–NOT deadenylase complex” (Nucleic Acids Research, 2012).
